This data set deals with SSB single-stranded DNA-binding protein (Escherichia coli, UniProt P0AGE0 P0AGE0:2-178). The data set is described as follows: FP; complex of 5 nM Cy5-dT15 with 20 nM SSB, disrupted by compounds; 25 mM MOPS pH 7.5, 1.25 mM MgCl2. The following applies: tags: Promega; chain copies: 4; label: 5'-Cy5.
Chain of SSB single-stranded DNA-binding protein (P0AGE0 2-178, one chain of several): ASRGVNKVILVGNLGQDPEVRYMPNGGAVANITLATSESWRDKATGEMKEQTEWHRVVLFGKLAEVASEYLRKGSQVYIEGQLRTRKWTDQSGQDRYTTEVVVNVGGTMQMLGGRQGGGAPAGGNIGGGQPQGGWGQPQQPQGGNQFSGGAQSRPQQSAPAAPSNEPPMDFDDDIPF

Experimental: The Escherichia coli SSB assay was performed in a total volume of 20.2 μl in 384-well, flat-bottom, low volume, black microplates (Greiner Bio-One).
For IC₅₀ determination, assays were performed with 60 μl total volume in black flat bottomed 384-well microplates (Corning). First, 3.0 μl of DMSO or compound dissolved in DMSO was added, such that the final concentration of DMSO was 5% (v/v) in each assay.

In the case of TTTTTTTTTTTTTTT (ssDNA) [Cy5-dT15], the binding result was “binds”.

The record behind these values is patent US20140227225, “HCV Helicase Inhibitors and Methods of Use Thereof” (UWM RESEARCH FOUNDATION, INC., published 2014).
